This series is described as follows: label from the status in PepcDB records.
“MAVVGFDAAKISILDENEKVTDTFTIDRSSGGTIEANISGLAPNMNVVYASNVPFYVSAKGTSEVKCELTVADLDDLGTEAVNKILGREQDSTTKITKVGVNTTPPYCVLELISKDKQGKGLFLGLLKGKFTFDGEDMKTSDNNGSQLSEDKVTMQCISRKDGYIYAKAKEADGTTQADFEKFIMPAATAPAAG”: the protein production entry is given as “failed”. Consider “QRSYERDFPHHDRICIVKTHGTRQSQEGDKPEELDFSQVSGGVAPAIQEEIPGVELATRTTLYGTSKMILEDNKTYETKTLLAEPAFLDMFGVELIAGVRDSALRDNMTCLISESLARKMGGDVLGKRLRPAESKSDRAITIGGVFEDLPHNSSIQADMLLPITWMPAESLNNWIGNDRYIAYVRLRPGVSPESLDEALLEMQKRHQDMEVFRKAGVELHYSLTPFNRLRLEDPTLVNMLRIQQ”, for which the protein production result is “not failed”.

With “MKMTVVGFWGGFPEAGEATSGYLFEHDGFRLLVDCGSGVLAQLQKYITPSDIDAVVLSHYHHDHVADIGVLQYARLITSATKGQLPELPIYGHTFDENGFHSLTHEPHTKGIPYNPEETLQIGPFSISFLKTVHPVTCFAMRITAGNDIVVYSADSSYIPEFIPFTKDADLFICECNMYAHQEAAKAGHMNSTEVASIAKDANVKELLLTHLPHTGNPADLVTEAKQIFSGHITLAHSGYVWNS”, the protein production result is “not failed”. With “MNNSTQTAPDSGNTLVISNVHLLLSDGWKNDTCLQVTEGVITAIGQDVVQGNSQVIDAGGGYLLPGIIDLHGDAFERHITPRAGTLFPLDLALAANDASLVANGITTFYYSITDGFEPGPRSRETVRKLLLALEELMPRFSCQAKVHIRHEKVNTEGHDELVDWLRNGRVHMLSLNDHLPELDNERAVKRYLAGLQRRVTMDDDATQEFLSSLQGRRELGEEQTRALASLALASGVSLSSHDDHGLEDVARNVQLGTAIAEFPMDAQTALESRKSGISVLMGAPNLVRGGSHVGAISVRDAIAEGLVDILCSDYHYPSLFTAPFVTARHDLLPLADAWKMVSENPARAAGMGDRKGQIAPGYDADLLLLSELDGSPLSLQATFVGGTPVYQREGQWQKQPLAAEAGGVVV”, the protein production result is “failed”. Regarding “MTGRLVLAATPMGDVGDASPRLRTALGTADVVAAEDTRRTKALASALDVTITGKVVSFYDQVETARLPALVADVASGKTVLLVTDAGMPSVSDPGYRLVSACVAEDLAVTCLPG”, the protein production result is “failed”. Regarding “MSYEAIMLERNGAVGVLTFNRPEVLNAYNRTLAADIITGFNELVADKSVRAIVLTGAGKAFMAGADINMVNGWTKLGNAAKIKEDLRQLVNPNMIEDCPKPTIAAVNGLAFGMGCELAMACDFRIAAEKAQFGQPEVKLGIIPGAGGSQRLRELVGPTRALEMISTGDPIDAQEAYRIGLVNQVVPRDELMEAVNAFAGRLIDKGAVVLDICKKLVYEGGDLPLRGGIDYEQDQFCKILLTADAQEGTLAFLEKRKPVFNKG”, the protein production entry is “failed”. For “MKIIELPIEFEFNGQKQCIYPSLIILHNELTLVDTGYPSFLPLIENAILKHGYEMKNLKNIIITHYDDDHIGAVYDFKVKYPNINVIASEIESNYINGDIKSERLVQAEEMLERMPNEEKEFGKWFIQQLKNIKHISVDEKVHDGQMILNNECQVVATPGHTSGHISLYFPNLDCVITGDAAVQENRELVIANPNFCLDIEKAKQSLNRIKSFKAAQYYCYHGGKLTV”, the protein production entry is listed as “failed”.

For “NIPEIENANLKPALKDSVLPDGFYSTTNHPTHVKVNDEWIEVANPKMDAVIVVYPEEKRAETKVIRKVKKGDFVLIGHNGIRVMPPEKSREAGQLFEFMNSEVSSEKPKEAIIKRIAKEMHEIREEYKKTGTGGIAIVGGPAIIHTGGGPALAKMVELGYIQAILAGNALATHDIESALYGTSLGVNIKTAKPVTGGHKHHIYAINAINDAGNIKNAVESGVLKEGIMYQCIKNNIPYVLAGSIRDDGPIPDVITDSMVAQDKMRTTVMDKKMVIMLSTLLHSVATGNLMPSYIKTVCVDIQPSTVTKLMDRGTSQAIGVVTDVGVFLVLLLKELERLELQE”, the protein production result was “not failed”.

For “MDIQRSILIVALAVVSYLLVLQWNKDYGQPELPAASASMNTTQGLPDTPSASGTSSDVPTAQSSAAGSEAADKPVAVSDKLIQVKTDVLDLAIDPRGGDIVQLGLLQYPRRLDRPDVPFPLFDNGRERTYLAQSGLTGADGPDASSAGRPLFRSAQSSYQLADGQNELVVDLSFSHDGVNYIKRFTFHRGLKADCSDKEKAQKKIECINENAYQVGVSYLIDNQSGKTWSGNLFAQLKRDGSADPSSTTATGVSTYLGAAVWTPDSPYKKISTKDMDKEQFKESVQGGWVAWLQHYFVTAWVPTKGEQHQVMTRKDGQGNYIVGFTGPTLSVPAGSKVETDLTLYAGPKLQKHLKELSPGLELTVDYGFLWFIAQPIFWLLQHIHSLIGNWGWSIIALTVLIKLAFFPLSAASYRSMARMRAVSPKMQAIKEQHGDDRQKMSQAMMELYKKEKINPLGGCLPILVQMPVFLSLYWVLLESVEMRQAPWLGWITDLSVKDPFFILPIVMGGTMLIQQMLNPTPPDPMQAKVMKLMPIIFTFFFLWFPAGLVLYWVVNNCLSIAQQWYITRKIEAAAKTA”, the protein production entry is listed as “failed”.

With “MLNKLMWLTGKAQEDWIEKILHLRQKIWPDYQRIKNDTLFKLYSHYPLYQWLSHYNGEVVAVINSLPVALDQSLDNLPQEGLNWVLSHLESTTPLTQSNYLAAVSVTVNPAYQRLGLSKLLLNRLKASAQEAQYKALIVPARPSQKENYPLISLEDYLKWKRVDNTIFDPWLRVHAQLGGKIAYPCQRSRVITANVAQWEQWLGHPLLQTGQYLVKGGLNPITINKEKDIGIYIEPNVWVIHDL”, the protein production entry is “failed”. Next, “GERRKDRPYVEEPRHVKVQKGSEPLGISIVSGEKGGIYVSKVTVGSIAHQAGLEYGDQLLEFNGINLRSATEQQARLIIGQQCDTITILAQYNPHVHQLSSHSR”: “not failed”.

In the case of “MTEPTHKKQFSLRTAVMLPFIAVLLVTLSIVFYTQNNSYEKLVGDVSEKVLASYTQNTHADLNIFLNAPNFAVKSMVNQIQRYQMYHPNDTKQLQQFLKDSLEGIYTGLEQMDVLSFGGEKKEYIGFRREPNASLSLMLQDKRTNDDLIIYRGSEMSDNIRTVIANYDPRSRPWYKPAATTFKPSWSKIYTNADEKKEITISTMHPVFYDEDFIGVFAADVKLDSFNKFLSQETKHTKGVIYLIDDQQRLIAHSSVGSVLSIGTQNSPVGSRLFAVESCDETIQQSATYIKNNQLINNKNNDAEVFSFYYKGERYFSQITPYIDGNNLNWYIVISISESDLLGHLQEEQRRGLFFGIVLAAIGLIVGVYLVTQVTKPIFTTANAARNIASGNWNNNVEAQGSIYETTLLMNAFNDMTNKLQSSFDAMRQQITFDSLTQVLSRQGLIEQCRIMLDKKEHYEQGLLVIGINNFRDINDSFGILEGDQLLKNISDRLQCSFAHDNIAIARVGGDEFALFFSKLDDVEQLKQYARDMEGCFMTPFRVASNNSLLSISTGLVYGDLSCDSMTLWLRNASIALGQAKKNNLNMSLYTPEMAEASLHKANMTAELSLAIKNKELVPFYQPIIDIKSGKTIGAEALIRWLSPQRGMVSPLDFIPLAEENGMIIPMGSQVLTQACLDTVERIDQGLWPADFHMHVNLSVCQLTQNNFLDELKAVLHNTSMAPENLTLEITESRLVNHDNSTINTMQKIRDLGVQIAIDDFGTGYSSLAYIHKLPFDVLKVDRSFIKDLTAENIDSSIAAAVCNMTQGFDITLVAEGIETQEQAKLLASLNYHHAQGFLYSRPIPLEDWPTE”, the protein production result is reported as “failed”. As to “MTRTTGTRTTGILADGAIRALFAGDKLKSEADLDVDQVQPASLDLRLGSKAYRVRASFMPGPGTRVIDKLNRFSLHEVDLSQGAVLETGCVYIVPLMESLALPADMSASANPKSSTGRLDIFTRVMTDNAQEFDKIPAGYTGPLYLEISPRTFPIVVRRGSRLSQIRFRIGHALLNESEVLKLHETETLVASENPNVTGGGIALSIDLKGFGENGLIGYRGKHHTAVVDVDKKAQHDVLDFWEPLFARGRAELILDPDEFYILVSREAVHVPPLYAAEMTPFDPLVGEFRVHYAGFFDPGFGHAQAGGTGSRAVLEVRSHEVPFILEHGQIVGRLVYEHMLEKPEGLYGTGLGSNYQAQGLKLSKHFRAE”, the protein production entry is “not failed”.

Source of the values: a protein production outcome set (Wang et al. 2014).
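Also: failed if final PepcDB status was selected cloned or expressed and not failed if soluble or beyond.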
